Laboratory results as given in US20250270332A1.

Biological target: FZD1/2/4/5/7/8
Test: cell-based or functional assay

Row | Binder | % Wnt Maxima Avg [%] | EC50 (nM), TOPFLASH assay [nM] | Maximal Signal (% Wnt3a maxima) (% Wnt3a maxima) | Topflash EC50 (nM) Avg [nM]
1 | CM0126 (Dia-Fc-Dia) (bispecific antibody) chain 1: MNLLLILTFVAAAVAEFEVQLVESGGGLVQPGGSLRLSCAASGFNIHSSSIHWVRQAPGKGLEWVAATYSSFGSITYADSVKGRFTISADTSKNTAYLQMNSLRAEDTAVYYCARYHHPFGYALDYWGQGTLVTVSSGGGGSDIQMTQSPSSLSASVGDRVTITCRASQSVSSAVAWYQQKPGKAPKLLIYSASSLYSGVPSRFSGSRSGTDFTLTISSLQPEDFATYYCQQGVYLFTFGQGTKVEIKLEDKTHTKVEPKSSDKTHNCPPCPAPELLGGPSVFLFPPKPKDTLMISRTPEVTCVVVDVSHEDPEVKFNWYVDGVEVHNAKTKPREEQYNSTYRVVSVLTVLHQDWLNGKEYKCKVSNKALPAPIEKTISKAKGQPREPQVYTLPPIRELMTSNQVSLSCAVKGFYPSDIAVEWESNGQPENNYKTTPPVLDSDGSFFLVSKLTVDKSRWQQGNVFSCSVMHEALHNHYTQKSLSLSPGKSGSETPGTSESATPESGGGEVQLVESGGGLVQPGGSLRLSCAASGFNISSYYIHWVRQAPGKGLEWVASIYSSYGYTSYADSVKGRFTISADTSKNTAYLQMNSLRAEDTAVYYCARTVRGSKKPYFSGWAMDYWGQGTLVTVSSGGGGSDIQMTQSPSSLSASVGDRVTITCRASQSVSSAVAWYQQKPGKAPKLLIYSASSLYSGVPSRFSGSRSGTDFTLTISSLQPEDFATYYCQQYSWGPFTFGQGTKVEIK chain 2: MNLLLILTFVAAAVAEFEVQLVESGGGLVQPGGSLRLSCAASGFNIHSSSIHWVRQAPGKGLEWVAATYSSFGSITYADSVKGRFTISADTSKNTAYLQMNSLRAEDTAVYYCARYHHPFGYALDYWGQGTLVTVSSGGGGSDIQMTQSPSSLSASVGDRVTITCRASQSVSSAVAWYQQKPGKAPKLLIYSASSLYSGVPSRFSGSRSGTDFTLTISSLQPEDFATYYCQQGVYLFTFGQGTKVEIKLEDKTHTKVEPKTSDKTHTCPPCPAPELLGGPSVFLFPPKPKDTLMISRTPEVTCVVVDVSHEDPEVKFNWYVDGVEVHNAKTKPREEQYNSTYRVVSVLTVLHQDWLNGKEYKCKVSNKALPAPIEKTISKAKGQPREPMVFDLPPSREEMTKNQVSLWCMVKGFYPSDIAVEWESNGQPENNYKTTPPVLDSDGSFFLYSKLTVDKSRWQQGNVFSCSVMHEALHNHYTQKSLSLSPGKSGSETPGTSESATPESGGGEVQLVESGGGLVQPGGSLRLSCAASGFNISYSSIHWVRQAPGKGLEWVAYISSYYGYTYYADSVKGRFTISADTSKNTAYLQMNSLRAEDTAVYYCARAHYFPWAGAMDYWGQGTLVTVSSGGGGSDIQMTQSPSSLSASVGDRVTITCRASQSVSSAVAWYQQKPGKAPKLLIYSASSLYSGVPSRFSGSRSGTDFTLTISSLQPEDFATYYCQQYYWPITFGQGTKVEIK | 52 | 0.3 | 52 | 0.3
2 | ANT-1 (bispecific antibody) heavy 1: MNLLLILTFVAAAVAEFEVQLVESGGGLVQPGGSLRLSCAASGFNISSYYIHWVRQAPGKGLEWVASIYSSYGYTSYADSVKGRFTISADTSKNTAYLQMNSLRAEDTAVYYCARTVRGSKKPYFSGWAMDYWGQGTLVTVSSGGGGSDIQMTQSPSSLSASVGDRVTITCRASQSVSSAVAWYQQKPGKAPKLLIYSASSLYSGVPSRFSGSRSGTDFTLTISSLQPEDFATYYCQQYYFLITFGQGTKVEIKLEDKTHTKVEPKSSDKTHNCPPCPAPELLGGPSVFLFPPKPKDTLMISRTPEVTCVVVDVSHEDPEVKFNWYVDGVEVHNAKTKPREEQYNSTYRVVSVLTVLHQDWLNGKEYKCKVSNKALPAPIEKTISKAKGQPREPQVYTLPPIRELMTSNQVSLSCAVKGFYPSDIAVEWESNGQPENNYKTTPPVLDSDGSFFLVSKLTVDKSRWQQGNVFSCSVMHEALHNHYTQKSLSLSPGKSGSETPGTSESATPESGGGEVQLVESGGGLVQPGGSLRLSCAASGFNIHSSSIHWVRQAPGKGLEWVAATYSSFGSITYADSVKGRFTISADTSKNTAYLQMNSLRAEDTAVYYCARYHHPFGYALDYWGQGTLVTVSSASTKGPSVFPLAPSSKSTSGGTAALGCLVKDYFPEPVTVSWNSGALTSGVHTFPAVLQSSGLYSLSSVVTVPSSSLGTQTYICNVNHKPSNTKVDKKVEPKSCDKTHT heavy 2: MNLLLILTFVAAAVAEFEVQLVESGGGLVQPGGSLRLSCAASGFNISYSSIHWVRQAPGKGLEWVASISPYYGYTYYADSVKGRFTISADTSKNTAYLQMNSLRAEDTAVYYCARSSYFPWFSAMDYWGQGTLVTVSSGGGGSDIQMTQSPSSLSASVGDRVTITCRASQSVSSAVAWYQQKPGKAPKLLIYSASSLYSGVPSRFSGSRSGTDFTLTISSLQPEDFATYYCQQYYWPITFGQGTKVEIKLEDKTHTKVEPKTSDKTHTCPPCPAPELLGGPSVFLFPPKPKDTLMISRTPEVTCVVVDVSHEDPEVKFNWYVDGVEVHNAKTKPREEQYNSTYRVVSVLTVLHQDWLNGKEYKCKVSNKALPAPIEKTISKAKGQPREPMVFDLPPSREEMTKNQVSLWCMVKGFYPSDIAVEWESNGQPENNYKTTPPVLDSDGSFFLYSKLTVDKSRWQQGNVFSCSVMHEALHNHYTQKSLSLSPGKSGSETPGTSESATPESGGGEVQLVESGGGLVQPGGSLRLSCAASGFNIHSSSIHWVRQAPGKGLEWVAATYSSFGSITYADSVKGRFTISADTSKNTAYLQMNSLRAEDTAVYYCARYHHPFGYALDYWGQGTLVTVSSASTKGPSVFPLAPSSKSTSGGTAALGCLVKDYFPEPVTVSWNSGALTSGVHTFPAVLQSSGLYSLSSVVTVPSSSLGTQTYICNVNHKPSNTKVDKKVEPKSCDKTHT light: DIQMTQSPSSLSASVGDRVTITCRASQSVSSAVAWYQQKPGKAPKLLIYSASSLYSGVPSRFSGSRSGTDFTLTISSLQPEDFATYYCQQGVYLFTFGQGTKVEIKRTVAAPSVFIFPPSDEQLKSGTASVVCLLNNFYPREAKVQWKVDNALQSGNSQESVTEQDSKDSTYSLSSTLTLSKADYEKHKVYACEVTHQGLSSPVTKSFNRGEC | 49 | 0.7 | 50 | 0.7
